# Measurements from the RNAGym collection of RNA variant scans (doi:10.1073/pnas.2313332121).
# B1: TPR t1 (parent)
# chain: GACCAAUCUGCCCUCAGAGCUCGAGAACAUCUUCGGAUGCAGAGGAGGCAGGCUUCGGUGGCGCGAUAGCGCCAACGUCCUCAACCUCCAAUGCAUCCCACCACAUGAUGAUGCCUGAAGAGCCUUGGUUUUUUG
# Variants of: B1
# Experiment: polymerase ribozyme fitness, log enrichment relative to wild type (log ratio); higher = more active; in vitro selection for triplet polymerase activity
# How it was run: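 Mutant libraries were PCR-built and transcribed for each subunit of a heterodimeric triplet polymerase ribozyme and selected for one round in triplicate at −7 °C, frozen, before gel excision of extended constructs and streptavidin-bead capture. Input and output libraries were Illumina-sequenced, keeping genotypes with ≥10 input reads and ≥1 read per output. Fitness is a logarithmic ratio of genotype to wild-type enrichment, in base 2, using inverse-variance-weighted replicate averages.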
row,Variant,polymerase ribozyme fitness (log ratio)
1,GACCAAUCUGCCCUCAGAGCUCGAGAACAUCUUCGUAUGCAGAGGAGGCAGGCUUUGGUGGCGCGAUAGCGCCAACGUCCUCAACCUCCAAUGCAUCCCACCAAAUGAUGAUGCCUGAAGAGCCUUGGUUUUUUG,-2.85
2,GACCAAUCUGCCCUCAGAGCUCGAGAACAUCUUCGUAUGCAGAGGGGGCAGGCUUCGGUGGCGCGAUAGCGCCAACGUCCUCAACCUCCAAUGCAUCCCACCACAUGAUGAUGCCUGAAGAGCCUUGGUUUUUUG,-0.974
3,GACCAAUCUGCCCUCAGAGCUCGAGAACAUCUUCGUAUGCAGAGGAGGCAGGCUUCGGUGGCGCGAUAGCGCCAACGUCCUCAACCUCCAAUGCAUCCUACCACAUGAUGAUGCCUGAAGAGCAUUGGUUUUUUG,-3.03
4,GACCAAUCUGCCCUCAGAGCUCGAGAACAUCUUCGCAUGCAGAGGAGGCAGGCGUCGGUGGCGCGAUAGCGCAAACGUCCUCAACCUCCAAUGCAUCCCACCACAUGAUGAUGCCUGAAGAGCCUUGGUUUUUUG,-2.09
5,GACCAAUCUGCCCUCAGAGCUCGAGAACAUCUUCGUAUGUAGAGGAGGCAGGCUUCGGUGGCGCGAUAGCGCCAACGUCCUCAACCUCCAAUGCAUCCCACCACAUGAUGAUGCCUGAAGUCCCUUGGUUUUUUG,-0.484
6,GACCAAUCUGCCCUCAGAGCUCGAGAACAUCUUCGCAUGCAGAGGAGGCAGGCUUCGGUGGCGCGAUAGCGCCAACGCCCUCAACCUCCAAUGCCUCCCACCACAUGAUGAUGCCUGAAGAGCCUUGGUUUUUUG,-2.98
7,GACCAAUCUGCCCUCAGAGCUCGAGAACAUCUUCGCAUGCAGAGGAGGCAGGCUUCGGUGGCGCGAUAGCGGCAACGUCCUCAACCUCCAAUGCAUCCCACCACAUGAUGAUGCCUGAAGAGCCUUGGUUUUUUG,-2.37
8,GACCAAUCUGCCCUCAGAGCUCGAGAACAUCUUCGCAUGCAGAGGAGGCAGGCUUCGGUGCCGCGAUAGCGCCAACGUCCUCAACCUCCAAUGCAUCCCACCACAUGAUGAUGCCUGAAGAGCCUUGGUUUUUUG,-2.42
9,GACCAAUCUGCCCUCAGAGCUCGAGAACAUCUUCGCAUGCAGAGGAGGCAGGCUGCGGUGGCGCGAUAGCGCCAACGUCCUCAACCUCCAAUGCAUCCCACCACAUGAUGAUGCCUGAAGAGCCUUGGUUUUUUG,-1.03
10,GACCAAUCUGCCCUCAGAGCUCGAGAACAUCUUCGCAUGCAGAGGAGGCAGGGUUAGGUGGCGCGAUAGCGCCAACGUCCUCAACCUCCAAUGCUUCCCACCACAUGAUGAUGCCUGAAGAGCCUUGGUUUUUUG,-2.45
11,GACCAAUCUGCCCUCAGAGCUCGAGAACAUCUUCGUAUGCAGAGGAGGCAGGCUUCGGUGGCGCGAUAGCGCCAACGUCCUCAACAUCCAAUGCAUCCCACCACAUGAUGAUGCCUGAAGAGCCUUGGUUUUUUG,-1.1
12,GACCAAUCUGCCCUCAGAGCUCGAGAACAUCUUCGUAUGCAGAGGAGGCAGGCUUCGGUGGCGCGAUAGCGCCAACGUCCUCAACCUCCAAUGCAUCCCACCACAUGAUGGUGCCUGAAGAGCCUUGGUUUUGUG,-2.38
13,GACCAAUCUGCCCUCAGAGCUCGAGAACAUCUUCGCAUGCAGAGGAGGCAGGCUUCGGUGGCGCGAUAGCGCCAACGUCCUCAACCGCCAAUGCAUCCCACCACAUGAUGAUGCCAGAAGAGCCUUGGUUUUUUG,-5.07
14,GACCAAUCUGCCCUCAGAGCUCGAGAACAUCUUCGCAUGCAGAGGAGGCACGCUUCGGUGGCGCGAUAGUGCCAACGUCCUCAACCACCAAUGUAUCCCACCACAUGAUGAUGCCUGAAGAGUCUUGGUUUUUUG,-5.76
15,GACCAAUCUGCCCUCAGAGCUCGAGAACAUCUUCGCAUGGAGAGGAGGCAGGCUUCGGUGGCGCGAUAGCGUAAACGUCCUCAACCUCCAAUGCAUCCCACCACAUGAUGAUGCCUGAAGAGCCUUGGUUUUUUG,-5.31
16,GACCAAUCUGCCCUCAGAGCUCGAGAACAUCUUCGCAUGCAGAGGAGGCAGGCUUCGGUAGCGCGAUAGCGCCAACGUCCUCAACCUCCAAUGCAUCCCACCACAUGAUGAUGCCUGAAGAGCCUUGGUUUUUUG,-0.627
17,GACCAAUCUGCCCUCAGAGCUCGAGAACAUCUUCGCAUGCAGAGGAGGCAGGAUUCGGUGGCGCGAUAGCGCCAACGUCCUCAACCUCCAAUGCAUCCCACCACAUGAUGAUGCUGGAAGAGCCUUGGUUUUUUG,-4.36
18,GACCAAUCUGCCCUCAGAGCUCGAGAACAUCUUCGCAUGCAGAGGAGGCAGGCUUCGGUGGCGCGAUAGUGCCAACGUCCUCAACCUCCAAUGCAUCCCACCACAUGAUGAUGCCUGAAGAGCCUUGGUUUUUUG,-1.72
19,GACCAAUCUGCCCUCAGAGCUCGAGAACAUCUUCGCAUGCAGAGGAGGCAGGCUUCGGUGGCGUGAUAGCGCCAACGUCCUCAAUCUCCAAUGCAUCCCACCACAUGAUGAUGCCUGAAGAGCCUUGGUUUUUUG,-1.78
20,GACCAAUCUGCCCUCAGAGCUCGAGAACAUCUUCGCAUGCAGAGGAGGCAGGCUUCGGUGGCGCGAUAGCGCCAACGUCCUCAACCUCCAAUGCAUCCCACCACAUGAUGAUGACUGAAAAGCCUUGGUUUUUUG,-2.49
21,GACCAAUCUGCCCUCAGAGCUCGAGAACAUCUUCGUAUGCAGAGGAGGCAGGCUUCGGUGGCGCGAUAGCGCCAACGUCCUCAACCUCCGAUGCAUGCCACCACACGAUGAUGCCUGAAGAGCCUUGGUUUUUUG,-1.51

row,Variant,polymerase ribozyme fitness (log ratio)
1,GACCAAUCUGCCCUCAGAGCUCGAGAACAUCUUCGCAUGCAGAGGAGGCAGGCUUCGGUGGCUCGAUAGCGCCAACGUCCUCAACCUCCAAUGCAUCUCACCACAUGAUGAUGCCUGAAGAGCCUUGGUUUUUUG,-3.08
2,GACCAAUCUGCCCUCAGAGCUCGAGAACAUCUUCGUAUGUAGAGGAGGCAUGCUUCGGUGGCGCGAUGGCGUCAACGUCCUCAACCUCCAAUGCAUCCCACCACAUGAUGUUGCCUGACAAGCCUUGGUUUUUUG,-8.09
3,GACCAAUCUGCCCUCAGAGCUCGAGAACAUCUUCGUAUGGAGAGGAGGCAGGCUUCGGUGGCGCGAUAGCGCCAACGGCCUCAACCUCCAAUGCAUACCACCACAUGAUGAGGCCUGAAGAGCCUUGGUUUUUUG,-1.61
4,GACCAAUCUGCCCUCAGAGCUCGAGAACAUCUUCGCAUGCAGAGGAGGCAGGCGUCGGUGUCGCGAUAGCGCCAACGUCCUCAACCUCCAAUGCAUCCCACCACAUGAUGAUGCCUGAAGAGCCUUGGUUUUUUG,-5.87
5,GACCAAUCUGCCCUCAGAGCUCGAGAACAUCUUCGUAUGAAGAGGAGGCAGGCUUCGGUGGCGCGAUAGCGCCAACGUCCACAACCUCCAAUGCAUCCCACCACAUGAUGAUGCCUGAACAACCUUGGUUUUUUG,-4.24
6,GACCAAUCUGCCCUCAGAGCUCGAGAACAUCUUCGCAUGCAGAGGAGGCAGGCUUCGGUGGCGCGGUAGCGUCAACGUCCUCAACCUCCAAUGCAUCCCACCACAUGAUGAUGCCUGAAGAGCCUUGGUUUUUUG,-3.78
7,GACCAAUCUGCCCUCAGAGCUCGAGAACAUCUUCGUAUGCAGAGGAGGCAGGCUUCGGUGGCGCGAUAGCGCCAACGUCCUCAAACUCCAAUGCAUCCCACCAAAUGAUGAUGCCUGAAGAGCCUUGGUUUUUUG,-3.96
8,GACCAAUCUGCCCUCAGAGCUCGAGAACAUCUUCGUAUGCAGAGGAGGUAGGCUUCGGUGGCGUGAUAGCGCCAACGUCCUCAACCUCCAAUGCAUCCCACCACAUGAUGAUACUUGAAGAGCCUUGUUUUUUUG,-6.05
9,GACCAAUCUGCCCUCAGAGCUCGAGAACAUCUUCGUAUGCAGAGGAGGCAGGCUUCGGUGGCGCGAUAGCGGCAACGUCCUCAACCUCCAAUGCAUCCCACUACAUGAUGAUGCCUGAAGAGCCUUGGUUUUUUG,-3.82
10,GACCAAUCUGCCCUCAGAGCUCGAGAACAUCUUCGCAUGCAGAGGAGGCAGGCUUCGGUGUCGCGAUAGGGCCAACGUCUACAACCUUCAAUGCAUCCCACCAAAUGAUGAUGGCUGAAGAGCCUUGGUUUUUUG,-6.29
11,GACCAAUCUGCCCUCAGAGCUCGAGAACAUCUUCGUAUGCAGAGGAGGCCGGCUUCGGUGGCGCGAUAGCGCCAACGUCCUCAUCCUCCAAUGCAUCCCACCACAUGAUGAUGCCUGAAGAGCCUUGGUUUUUUG,-1.94
12,GACCAAUCUGCCCUCAGAGCUCGAGAACAUCUUCGCAUGCAGAGGAGGCAGGCUUCGGUGUCGCGAUAGCGCCAACGUCCUCAACCUCCAAUGCAUCCCACCACAUGAUGAUGACUGAAGAGCCUUGGUUUUUUG,-2.77
13,GACCAAUCUGCCCUCAGAGCUCGAGAACAUCUUCGCAUGCAGAGGAAGCAGGCUUCGGUGGCGCGAUAGCGCCAACGUCCUCAACCUCCAAUGCAUCCCACCACAUGAUAAUGCCUGAAGAGCCUUUGUUUUUUG,-2.57
14,GACCAAUCUGCCCUCAGAGCUCGAGAACAUCUUCGUAUGCAGAGGAGGCAGGCUUCGGUGGCGCGAUAGCGCCAACGUCCUCAACCUCCAAUGCAUCCCACCGCAUGAUGAUGCCUGAAGAGCCUUGGUUUUUUG,-4.73
15,GACCAAUCUGCCCUCAGAGCUCGAGAACAUCUUCGUAUGCAGAGGCGGCUGGCUUCGGUGGCGCGAUAGCGCCAACGUCCUCAUCCUCCAAUGCAUCCCACCACAUGAUGAUGCCUGAAGAGCCUUGGUUUUUUG,-5.6
16,GACCAAUCUGCCCUCAGAGCUCGAGAACAUCUUCGCAUGCAGAGGAGGGAGGCUUCGGUGGCGCGAUAGUGCCAACGUCCUCAACCUCCAAUGCAUCCCACCACAUGAUGAUGCCUGAAGAGCCUUGGUUUUUUG,-2.37
17,GACCAAUCUGCCCUCAGAGCUCGAGAACAUCUUCGUAUGCAGAGGAGGCAGGCUUCGGUGGCGCGAUAGCGCCAACGUCCUCAACCUCCAAUGCAUACCACCACAUGAUGAUGCCUGAAGAGCCUUGGUUUUUUG,-0.428
18,GACCAAUCUGCCCUCAGAGCUCGAGAACAUCUUCGUAUGCAGAGGAGGCAGGCUUCGGUGGCGUGAUAGCGCCAACGUCCUCAACCUCCAAUGCAUCCCACCACAUGAUGAUGCCUGAGGAGCCUUGGUUUUUUG,0.0711
19,GACCAAUCUGCCCUCAGAGCUCGAGAACAUCUUCGCAUGCAGAGGAGGCAGGCUUCGGUGGCGCGAUAGCGCCAACGUCCUCAACUUCCAAUGCAUCCCACCACAUGAUGAUGCCUGAAGAGCCUUGGUUUUUUG,-1.65
20,GACCAAUCUGCCCUCAGAGCUCGAGAACAUCUUCGCAUGCAGAGGAGGCAGGCUUCGGUGGCGCGAUAGCGCCAACGUCCUCAACAUCCAAUGCAUCCCACCACAUGAUGAUGCCUGAAGAGCCUUGGUUUUUUG,-1.45
21,GACCAAUCUGCCCUCAGAGCUCGAGAACAUCUUCGCAUGAAGAGGAGGCAGGCUUCGGUGGCGCGAUAGCGCCAACGUCCUCAACCUCCAAUGCAUCCCACCACAUGAUGAUGCCUGAAGAGCCUUGGUUUUUUG,-1.42
